Data on 2 molecules can be found in publication PMC2613882, “The FF domains of yeast U1 snRNP protein Prp40 mediate interactions with Luc7 and Snu71” (BMC Biochemistry, 2008).

Test [1] addresses T1, GST-Prp40FF1 (amino acids 129-201) (Saccharomyces cerevisiae, UniProt P33203 129-201).
T1 construct: Prp40, S. cerevisiae, residues 129-201 (Prp40FF1); also called GST-FF1; source: E. coli BL21, purified (glutathione Sepharose 4B)
T1 sequence (looked up): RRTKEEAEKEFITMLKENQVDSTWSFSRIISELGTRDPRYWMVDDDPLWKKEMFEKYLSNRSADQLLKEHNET
The experiment in a line: peptide or protein array; SPOT 15-mer peptides (3 aa shifts; alanine scan and substitution analysis of A24) on a β-alanine membrane, probed overnight at 4°C with 10 μg/ml purified GST fusion protein, detected with anti-GST antibody. To be noted: both partners purified.

Test [2] deals with T2, GST-Prp40FF1-2 (amino acids 129-264) (Saccharomyces cerevisiae, UniProt P33203 129-264).
T2 construct: Prp40, S. cerevisiae, residues 129-264 (Prp40FF1-2); also called GST-FF1-2; source: E. coli BL21, purified (glutathione Sepharose 4B)
T2 sequence (looked up): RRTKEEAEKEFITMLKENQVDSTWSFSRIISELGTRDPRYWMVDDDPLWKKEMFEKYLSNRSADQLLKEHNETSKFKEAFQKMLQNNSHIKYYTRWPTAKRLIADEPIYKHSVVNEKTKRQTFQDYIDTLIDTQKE
Described as above. To be noted: both partners purified.

As to DRRLADHFLGKIHLG (also called A24 peptide) [Luc7 peptide A24, D214RRLADHFLGKIHLG228], the binding result in test [1] and in test [2] was “binds” throughout.

As to HLANDVHYDHHRSFK (Snu71, S. cerevisiae, residues 418-432) [Snu71 peptide B1, H418LANDVHYDHHRSFK432], the binding result in test [2] is recorded as “binds”.
